The source of these data is the supplement of paper PMC12042874.

± gives the uncertainty stated by the source.

The series is described as follows: amyloid nucleation score (Sup35N fusion, yeast selection) (log enrichment); library NNK2; higher = more nucleation; inactive = no reads after selection. A digest of the protocol: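 For the nucleation score, DiMSum gave the log enrichment of output over input reads, centred on the mode score of non-aggregating sequences. Psi-negative yeast expressing Sup35N fused to peptides of 20 random codons were induced with 100 μM copper sulfate for 24 hours and grown 7 days at 30°C on medium lacking adenine and uracil. Input and output plasmid inserts were Illumina-sequenced, and sequences with under 100 input reads were excluded.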
In turn, PSRPCGLRELAYADSAKQLW returned an amyloid nucleation score of 1.15 ± 0.34. PSVSRLIESNFCSSIRFFTH gave an amyloid nucleation score of -1.04 ± 0.64.

As for PTAVNSTMYSMYRTGNL, the amyloid nucleation score was -0.294 ± 0.34. With PTDHSTEVSLRFCCRGVSEL the figure was -0.403 ± 0.46. PTGCLMICNSFVIDSVRRRP: the amyloid nucleation score is 7.812 ± 0.032. Consider PTQVSDLDNLTDCPRGVLPC, for which the amyloid nucleation score is -0.735 ± 0.48. To PVAQTLAVTFNY belongs 1.62 ± 0.23; to PVGFDHNF, -0.451 ± 0.56; to PVKRQGSSAANVPVVW, 0.444 ± 0.44.

Consider PVLFYSLYIVNVNTLYMSSG, for which the amyloid nucleation score amounted to 7.857 ± 0.051.

The substance PVLIVLYDIGSCKERKE gave an amyloid nucleation score of 0.134 ± 0.55.

Take PVRSRWPFSSSLAAVTTYRV: the amyloid nucleation score amounted to 1.26 ± 0.41. On to PVWKVERRNSHLLKDIGNSI, for which the amyloid nucleation score stood at 0.325 ± 0.57. To PVYRACILIDM belongs 3.18 ± 0.054. On to PWPYIWSRCSQTDTVSCEHS, for which the amyloid nucleation score was -0.212 ± 0.33. To PYGFRVFTLWMLKRDSS belongs 0.92 ± 0.57; to PYNMVVYLGLLSRC, 0.919 ± 0.17; to PYQMGSYKLACVQKRPWV, 0.929 ± 0.58. With PYRLHMCCWEPLRSMLFMSF, the amyloid nucleation score is 1.03 ± 0.31. To PYSVTEHICGIWLVWCIVGS belongs -0.418 ± 1.1; to PYYYRLDFWHHNKKYNFGYY, -1.16 ± 1.1; to QAGALFDKRQGLRYGWVVSM, -0.641 ± 0.41. QCFIWSHRVIVGFHGLGLSA gave an amyloid nucleation score of -0.02 ± 0.79.

QCGSSMFRMPVLNWTA displayed an amyloid nucleation score of 0.734 ± 0.81.

In turn, QCKVQCKEWVYNVFAKLQDS returned an amyloid nucleation score of -0.927 ± 1.1.

For the substance QCSHI, the amyloid nucleation score was -0.193 ± 0.28. To QCVGRASCANSVALYLCSVA belongs 0.06 ± 0.35.

The substance QCVVTVCDRL registered an amyloid nucleation score of 1.73 ± 0.13. With QDMQLVIYWSYKLYQVFLRA the figure was -0.357 ± 1.1. To QDRVFYIAYVNNVS belongs 5.606 ± 0.04. To QDVGNKLKIWANITCARLWY belongs -0.067 ± 0.65; to QDVSYPSWYPGAFC, -0.675 ± 1.1. As to QEELSWSS, the amyloid nucleation score was determined as 0.131 ± 0.25. With QETFDFCM the figure was -1.65 ± 0.64; with QEVFSN, -0.849 ± 1.1; with QFDAWAYMDRTPHGDSYRAA, 0.237 ± 0.65. With QFLAIFCSIT the figure was 7.684 ± 0.043.

Consider QFNFCKLAGQPLMFEFIDGV, for which the amyloid nucleation score came to 5.58 ± 0.059.

QFNYHNLNLTNFKSLCASTD registered an amyloid nucleation score of 0.019 ± 0.61. To QFPTCVHKPSCWDF belongs 0.291 ± 0.5. Take QGCPFWYNYVLVYSVSGGIS: the amyloid nucleation score came out at 2.36 ± 0.14. The substance QGELYRSANLLFVAEVSSWR had an amyloid nucleation score of 0.561 ± 0.64. With QGKNAFAGLGYMSHKRRMWG the figure was 0.686 ± 0.39. With QGLGTRLRDRLTVYCRFTAF the figure was -0.69 ± 0.61; with QGRLSPY, “inactive”. With QGSKDRSYINKYRDRFCLTD the figure was -0.304 ± 1.1. In turn, QGTQWFLLKVSAIVKQLRWT registered an amyloid nucleation score of -0.317 ± 0.79. To QHLFFIYSCYTKLGGTLAGE belongs 0.746 ± 0.2; to QHSKD, -1.71 ± 0.77; to QHYLKPAMARQSLKGIFDQD, -0.595 ± 0.61. QIASYDFCHRVGRMGPTVCV registered an amyloid nucleation score of -0.165 ± 0.54.

The substance QILNGSAY showed an amyloid nucleation score of -0.899 ± 0.3. With QILPWGVSMEKL the figure was -0.492 ± 0.41; with QIMLAGLRSLDLTVDRTFNS, “inactive”; with QIRPLRKRELYSW, 2.64 ± 0.066. To QKKLDLQ belongs -0.673 ± 1; to QKLIRWCVKLG, 4.24 ± 0.062; to QKMRPNIKVFVYKNVGYNWC, 8.562 ± 0.054.

With QKYRVL, the amyloid nucleation score is -0.611 ± 0.32.

With QKYWCDFSNK, the amyloid nucleation score entry is “inactive”. Substance QLDRCLILPWTFSWCMDCVL displayed an amyloid nucleation score of 4.92 ± 0.053. For the substance QLHSLKKKRKY, the amyloid nucleation score was -0.625 ± 0.28.

On to QLKSFR, for which the amyloid nucleation score result was “inactive”. To QLLRCNRRSKMLDR belongs -0.156 ± 0.76.

Substance QLNAVDMAKPVVGLFREQSY returned an amyloid nucleation score of -0.15 ± 0.39. As to QLPFWGWNCMAKLTVTLHSR, the amyloid nucleation score was found to be 1.22 ± 0.29.

Take QLVGDELMRCSNGAVDKNVA: the amyloid nucleation score turned out to be 1.75 ± 0.24. In turn, QLWSAWWHTVKKTGRRWWHR showed an amyloid nucleation score of 0.921 ± 0.19. To QMCIVDTNGRN belongs 0.861 ± 0.6; to QMNVSTYSCNLD, 0.044 ± 1.1; to QMTLVHK, 1.67 ± 0.39.

With QNCSHGSLCG, the amyloid nucleation score was -0.022 ± 0.25. With QNKSIDSHAVGGIRVDDYRR the figure was -0.088 ± 0.31.

QNLSSLFKVYGTSSC registered an amyloid nucleation score of -0.953 ± 0.38. With QQHYLEEPDDESLVRGCRHW the figure was -0.039 ± 0.54; with QQVQNAVCGWESYCSQLNRR, -0.241 ± 0.48; with QRCISGNTNSVCRLEYRWLM, 0.396 ± 0.44.

Take QRLVSLYFRLSDGHMD: the amyloid nucleation score stood at 3.3 ± 0.06. In turn, QRPAGYHQTLSVARQRLRPD showed an amyloid nucleation score of -0.73 ± 0.76. As to QRVSRYNLLRARPGKIAEHF, the amyloid nucleation score result is “inactive”. As for QSFNVCCWLGEMDVLYSSIT, the amyloid nucleation score was 8.997 ± 0.038. With QSGFEVSCLSDMDSCYRSRN the figure was 0.509 ± 0.31. With QSLSSYHLNFSALRSVPWP the figure was 0.043 ± 0.38. To QSLSTKRRSVFFAGHQARGK belongs -0.42 ± 0.64. Regarding QSQSSNCYDFIRTNDRKSIC, the amyloid nucleation score result is “inactive”. With QSRQFLSVYFYLFFLFFSFL the entry was “inactive”; with QSVYFILNNFKWFPGSTGM, 7.062 ± 0.048; with QSYMSGKYVVLVQRGEVFSF, -1.21 ± 0.49. To QTFDYW belongs 0.256 ± 0.74. Regarding QTPIGK, the amyloid nucleation score is -0.66 ± 1.1.

The substance QVCDRILTWSRLPLSISRVR showed an amyloid nucleation score of 0.062 ± 0.79. As to QVKFLRDFEGFCMMMKHSSR, the amyloid nucleation score is -0.395 ± 0.26. With QVLVWQHMGRSTVLMLY the figure was -0.58 ± 0.55; with QVSLMKVGWITMTPLGLHSL, 4.03 ± 0.069. With QVVEYN the figure was -0.047 ± 0.33; with QVWSFDGCS, -0.15 ± 0.4; with QWLKTVSLS, 0.449 ± 0.8. Turning to QWMRSWNDTGRAES, the amyloid nucleation score came to 2.13 ± 0.1. With QWMVLQSDRGAEMIARA the figure was 1.29 ± 0.2; with QWRFGRG, 1.16 ± 0.26; with QWWRYS, 1.17 ± 0.41. On to QYSYGWHLRTIRIRRTCTGS, for which the amyloid nucleation score was found to be 1.15 ± 0.31. RAACFSAAHRTDWTWPDGDM: the amyloid nucleation score came out at 2.49 ± 0.19.

The substance RALLCGSDVSKRNHGRSFVF displayed an amyloid nucleation score of 0.05 ± 1. To RALLRFMLWFCEIPD belongs 0.94 ± 0.74; to RALVD, -0.548 ± 1.1. RAMHQDSVFVRWVEPPYCWC gave an amyloid nucleation score of -0.024 ± 1. To RAPVSWRLK belongs 0.267 ± 0.42.

RASANYRSSYFERSPDVVRE gave an amyloid nucleation score of 3.63 ± 0.14. With RAVDDYRE the figure was 0.88 ± 0.3; with RCIDSVLIMHITYFAAFGKL, 5.08 ± 0.099. To RCIYWHVTVIFIMDIWVRTY belongs 0.415 ± 0.17; to RCKCNAIEVT, 0.565 ± 0.2. RCLVREISNPDGSDSIIWLR gave an amyloid nucleation score of -0.574 ± 0.55. Turning to RCNMLDRYPSVGRNPVLMVV, the amyloid nucleation score was 0.063 ± 1.1. With RCQTFLGKETPSFYRKIVKF the figure was -1.02 ± 0.55; with RCSGVP, 0.908 ± 0.23; with RCTGDLGRVARFWYETVKLN, -0.066 ± 0.39. To RCVGNCMMSLRAEYD belongs 2.8 ± 0.079. For the substance RCVTERFPDM, the amyloid nucleation score amounted to 0.408 ± 0.5. RCVYNTKVREMPVLVGLRQD: the amyloid nucleation score entry is “inactive”. In the case of RDIRWIYEDTLISSGIWRSL, the amyloid nucleation score was 2.62 ± 0.11. For RDISIMHRRRMNGLFNY, the amyloid nucleation score entry was “inactive”. In turn, RDMVTVVCTWEKWCCRFPDL registered an amyloid nucleation score of 0.063 ± 0.21. With RDNFLNEY the figure was -0.953 ± 0.36; with RDREIVQSLLHVLSQASLFV, -0.456 ± 0.35; with RDSKFRMPLKWKAFFMGVER, 1.17 ± 0.38. With RDSQWGLSRKDFSHACVLTY the figure was -0.408 ± 0.48; with REALDHWVDRVTVRWVRICI, -0.474 ± 0.35. To RECDKEFRQSSSCIDRRLGM belongs -0.156 ± 0.8; to REFLCCGN, 3.36 ± 0.075. For RERCC, the amyloid nucleation score entry was “inactive”. Substance RESARRKAYLLSKNGSNWLH registered an amyloid nucleation score of -0.249 ± 0.5. With RFCAMTYERLCVFVIF the figure was 0.197 ± 0.4; with RFCRHRMRGILP, 1.06 ± 0.17; with RFEFIVMSLW, 3.19 ± 0.06. RFEHGSTFGDDKL returned an amyloid nucleation score of -1.26 ± 1.1. The substance RFMHGTTCHTKYHRHLSTET returned an amyloid nucleation score of 0.766 ± 0.23. With RFNCHFIWNIRPEFRMNNDK the figure was 5.61 ± 0.057; with RFNMMKSKQMELSN, -0.504 ± 0.46.

On to RFSCAEYVPVMT, for which the amyloid nucleation score worked out at 0.298 ± 0.56. As to RFTALADGYRFTLSLGIVSG, the amyloid nucleation score amounted to 2.28 ± 0.12.
